Target: low-density lipoprotein (LDL) particles, 125I-labelled
Experiment: cell-based or functional assay

uptake of 125I-LDL by FH fibroblasts infected with LRP5 adenovirus [% increase] | uptake of 125I-LDL by FH fibroblasts infected with LDL-receptor adenovirus [fold] | Substance
60 |  | human LDL-receptor related protein-5 (LRP5), isoform 1 (from UniProt O75197 32-1615)
 | 20 | LDL-receptor (from UniProt P01130 22-860) (receptor; the values are: fold increase in LDL uptake)

Reference: patent US7244577
